Reference: patent publication US20250066490A1, “ANTI-CD70 ANTIBODIES, CONJUGATES THEREOF AND METHODS OF USING THE SAME” (ProfoundBio US Co., priority 2021, published 2025)

T1: CD70 ECD (Homo sapiens, UniProt P32970)
T1 sequence (P32970 39-193 limits assumed): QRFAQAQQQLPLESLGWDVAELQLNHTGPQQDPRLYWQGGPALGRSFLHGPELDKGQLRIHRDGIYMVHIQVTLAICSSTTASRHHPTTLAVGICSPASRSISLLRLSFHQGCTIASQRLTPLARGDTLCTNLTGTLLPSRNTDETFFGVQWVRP

T2: mouse CD70 extra-cellular domain (ECD) (Mus musculus, UniProt O55237)
T2 construct: human, rat, or mouse CD70 extra-cellular domain (ECD) linked to His tag; His tag; purchased ACRO systems
T2 sequence (O55237 45-195): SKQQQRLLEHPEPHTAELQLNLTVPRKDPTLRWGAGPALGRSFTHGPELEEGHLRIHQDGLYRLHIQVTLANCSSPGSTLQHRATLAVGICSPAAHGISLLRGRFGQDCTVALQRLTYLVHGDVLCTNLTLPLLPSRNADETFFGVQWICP

T3: human CD70 extra-cellular domain (ECD) (Homo sapiens, UniProt P32970)
T3 construct: human, rat, or mouse CD70 extra-cellular domain (ECD) linked to His tag; His tag; purchased ACRO systems
T3 sequence (P32970 39-193 limits assumed): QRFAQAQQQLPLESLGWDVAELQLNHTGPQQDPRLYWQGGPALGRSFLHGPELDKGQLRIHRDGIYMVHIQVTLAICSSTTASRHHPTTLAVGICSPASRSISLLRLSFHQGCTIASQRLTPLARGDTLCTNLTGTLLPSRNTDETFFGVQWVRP

T4: rat CD70 extra-cellular domain (ECD) (Rattus norvegicus, UniProt M0R613)
T4 construct: human, rat, or mouse CD70 extra-cellular domain (ECD) linked to His tag; His tag; purchased ACRO systems
T4 sequence (M0R613 1-194): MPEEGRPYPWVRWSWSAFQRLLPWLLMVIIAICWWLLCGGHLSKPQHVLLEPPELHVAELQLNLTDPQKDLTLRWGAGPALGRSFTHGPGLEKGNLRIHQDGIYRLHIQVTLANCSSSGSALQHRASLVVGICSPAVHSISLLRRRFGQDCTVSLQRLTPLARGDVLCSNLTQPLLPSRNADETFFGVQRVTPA


Tests used:
CD70 ECD = target: T1, CD70 ECD; assay: Biacore affinity measurement on immobilized CD70 ECD; assay type: binding; settings: 25° C., CD70 immobilized
Method: The immobilization of antigen CD70 ECD was performed at 25° C. with HBS-EP as the running buffer. Sensor chip surface of flow cells 1, 4 were activated by freshly mixed 50 mmol/L N-Hydroxy succinimide (NHS) and 200 mmol/L 1-ethyl-3-(3-dimethylaminopropyl) carbodiimide hydrochloride (EDC) for 420s (10 μL/min). Afterwards, CD70 antigen diluted in 10 mmol/L NaAC (pH 4.5) was injected into flow cell 4 to achieve conjugation of the appropriate Response Unit, while flow cell 1 was set as a blank. After the amine coupling reaction, the remaining active coupling sites on chip surface were blocked by 420s injection of 1 mol/L ethanolamine hydrochloride.
The assay was performed at 25° C. and the running buffer was HBS-EP. Diluted antibodies were injected over the surface of flow cells 1 and 4 during the association phase, followed by injecting running buffer as the dissociation phase. All the data were processed using Biacore T200 Evaluation software version 3.1. Flow cell 1 and a blank injection of buffer in each cycle were used as a double reference for Response Units subtraction. Kinetic data of the interaction between the antibodies and CD70 antigen were obtained through affinity measurement.

[1] = tested on: 786-O, Caki-1, U251 and DBTRG-05MG cells; assay: Antibody binding by flow cytometry, statements across all four tumor cell lines; set-up: species or system human; settings: range over the four cell lines
Method: The lead antibodies were tested for binding to renal carcinoma cells and glioblastoma cells expressing CD70 on the cell surface by flow cytometry. Cell lines 786-O (ATCC® CRL-1932™, provided by COBIOER), Caki-1 (ATCC® HTB-46™, provided by COBIOER), U251 and DBTRG-05MG (ATCC® CRL-2020™, provided by COBIOER) were each tested for antibody binding. 786-O cells were cultured with RPMI 1640 medium (Gibco, Cat #11875093) containing of 10% FBS (Gibco, Cat #10099141) while Caki-1 cells were cultured with McCoy's 5a Modified medium (Gibco, Cat #16600082) containing 10% FBS. U251 cells were cultured with MEM medium containing of 10% FBS and 1% NEAA+1 mM sodium pyruvate. DBTRG-05MG cells were cultured with DMEM medium (Gibco, Cat #C11995500BT) containing of 10% FBS. Each of the lead antibodies and the controls were incubated for 30 mins with the different cell lines (3×10^5 cells per well) in 0.2 ml FACS buffer (1×PBS with 0.1% BSA) at 4° C. Then, the cells were pelleted, washed, and incubated at 4° C. for 30 mins with 100 μl of 1:200 diluted PE-conjugated anti human Fc (Abcam, Ab98596) in FACS buffer. The cells were pelleted again, washed with PBS, resuspended in FACS buffer and analyzed by flow cytometer (Beckman, CytoFLEX).

[2] = Hydrophobic interaction chromatography (HIC); assay type: physicochemical; settings: full IgG; for Retention time: hydrophobicity by HIC
Method: Antibodies were purified from cleared cell culture supernatants using Protein A chromatography (Protein A resin slurry, 4.5 mL, Bogen, Cat #18-0010-02). Briefly, supernatants were prepared for affinity chromatography and loaded onto the columns and allowed to flow completely through the resin. The columns were washed with binding buffer containing 0.15M NaCl and 0.2M PB, PH7.0. Antibody was eluted with elution buffer containing 0.15M NaCl, 0.1M Glycine and 0.2M PB, PH 3.0. Fractions were collected and neutralized by the addition of 1/10 volume of 1M Tris, PH9.0. The fractions were dialyzed for 2 hours against 1×PBS. Purified antibody was quantified by absorbance at A280. Samples from each step of the protein A chromatography were applied onto 12% SDS-PAGE gels for reduced and non-reduced electrophoresis. The hydrophobicity was assessed with hydrophobic interaction chromatography (HIC) on a TSK gel Butyl-NPR, 4.6×100 mm with Butyl-NPR (Tosoh corporation) using a Waters HPLC 2695 system.

[3] = target: T2, mouse CD70 extra-cellular domain (ECD); assay: Biolayer interferometry (BLI), mouse CD70; assay type: binding
Method: (§1) Recombinant proteins consisting of human, rat, or mouse CD70 extra-cellular domain (ECD) linked to His tag was purchased (from ACRO systems). 69A7 and 2E7 (20 nM) were immobilized on anti-human IgG Fc biosensor tips (ForteBio). Binding assays using one concentration (100 nM) of recombinant protein in solution were performed using Octet RED (ForteBio). Association time was set at 180s and dissociation time was set at 300s. Binding affinity was calculated using ForteBio Data Acquisition 6.3 software. Affinity was derived by fitting the kinetic data to a 1:1 Langmuir binding model utilizing global fitting algorithms. […] Binding assays for 2E7 using multiple dilutions (from 200 nM down to 3.13 nM) of species' recombinant CD70 ECD proteins in solution were also performed using the same method.

[4] = target: T3, human CD70 extra-cellular domain (ECD); assay: Biolayer interferometry (BLI), human CD70; assay type: binding
Method: as §1

[5] = target: T4, rat CD70 extra-cellular domain (ECD); assay: Biolayer interferometry (BLI), rat CD70; assay type: binding
Method: as §1

[6] = one concentration (100 nM), Table 9
[7] = Hu CD70 100 nM, one concentration

Row | Molecule | Rmax (RU) (CD70 ECD) | ka (CD70 ECD) | kd (CD70 ECD) | EC50 relative to that of antibody 69A7 [1] | Response ([3]; MS CD70 100 nM, one concentration, *Response below range of quantification) | ka ([3]; MS CD70 100 nM, one concentration, response below range of quantification) | cross-reactivity to mouse CD70 [3, 6] | Response [4, 7] | ka [4, 7] | Kd ([4]; human CD70, one concentration (100 nM), read-out: equilibrium dissociation constant (KD)) | Response ([5]; Rat CD70 100 nM, one concentration, *Response below range of quantification) | ka ([5]; Rat CD70 100 nM, one concentration, response below range of quantification) | cross-reactivity to rat CD70 [5, 6] | hydrophobicity compared with the parent antibody 69A7 ([2]; HIC) | Retention time [2]
1 | 2A4P0L1: new VH/VL combination derived from the VH of 2A4 and the VL of 2D2 (antibody, V domains shown) VH: QVQLQESGPGLVKPSETLSLTCTVSGGSVSSDYYYWSWIRQPPGKGLEWLGYIYYSGSTNYNPSLKSRVTISVDTSKNQFSLKLRSVTTADTAVYYCARGDGDYGGNVFPYWGQGTLVTVSS VL: EIVLTQSPATLSLSPGERATLSCRASQSVSSYLAWYQQKPGQAPRLLIFDASNRATGIPARFSGSGSGTDFTLTISSLEPEDFAVYYCQQRLKFPLTFGGGTKVEIK | 45.47 RU | 51000 M⁻¹ s⁻¹ | 0.00197 s⁻¹ | 1.7-2.2 times | – | – | – | – | – | – | – | – | – | slightly more hydrophobic than the parent antibody 69A7 | 9.56 min
2 | 2A4: anti-CD70 antibody clone, VH SEQ 3 and VL SEQ 4; scFv and full human IgG1/kappa (antibody, V domains shown) VH: QVQLQESGPGLVKPSETLSLTCTVSGGSVSSDYYYWSWIRQPPGKGLEWLGYIYYSGSTNYNPSLKSRVTISVDTSKNQFSLKLRSVTTADTAVYYCARGDGDYGGNVFPYWGQGTLVTVSS VL: EIVLTQSPATLSLSPGERATLSCRASQSVSSYLAWYQQKPGQAPRLLIFDASNRATGIPARFSGSGSGTDFTLTISSLEPEDFAVYYCQQRSNWPLTFGGGTKVEIK | – | – | – | – | – | – | – | – | – | – | – | – | – | – | 9.06 min

Further lines, with some results ahead:

Row | Rmax (RU) (CD70 ECD) | ka (CD70 ECD) | kd (CD70 ECD) | EC50 relative to that of antibody 69A7 [1] | Response ([3]; MS CD70 100 nM, one concentration, *Response below range of quantification) | ka ([3]; MS CD70 100 nM, one concentration, response below range of quantification) | cross-reactivity to mouse CD70 [3, 6] | Response [4, 7] | ka [4, 7] | Kd ([4]; human CD70, one concentration (100 nM), read-out: equilibrium dissociation constant (KD)) | Response ([5]; Rat CD70 100 nM, one concentration, *Response below range of quantification) | ka ([5]; Rat CD70 100 nM, one concentration, response below range of quantification) | cross-reactivity to rat CD70 [5, 6] | Molecule | hydrophobicity compared with the parent antibody 69A7 ([2]; HIC) | Retention time [2]
3 | 38.01 RU | 6330 M⁻¹ s⁻¹ | 0.00198 s⁻¹ | – | *0.0113 | 1494 M⁻¹ s⁻¹ | no cross-reactivity | 0.3334 | 338700 M⁻¹ s⁻¹ | 2.9 nM | *0.0198 | 94250 M⁻¹ s⁻¹ | no cross-reactivity | 69A7: parent anti-CD70 antibody (U.S. Pat. No. 8,124,738B2), VH/VL SEQ ID NOs: 1 and 2 (antibody, V domains shown, Synthetic 69A7 VH amino acid sequence; Synthetic 69A7 VL amino acid sequence) VH: QVQLQESGPGLVKPSETLSLTCTVSGGSVSSDYYYWSWIRQPPGKGLEWLGYIYYSGSTNYNPSLKSRVTISVDTSKNQFSLKLRSVTTADTAVYYCARGDGDYGGNCFDYWGQGTLVTVSS VL: EIVLTQSPATLSLSPGERATLSCRASQSVSSYLAWYQQKPGQAPRLLIFDASNRATGIPARFSGSGSGTDFTLTISSLEPEDFAVYYCQQRSNWPLTFGGGTKVEIK | – | 8.83 min
4 | 19.27 RU | 45100 M⁻¹ s⁻¹ | 0.00236 s⁻¹ | – | – | – | – | – | – | – | – | – | – | Vorsetuzumab (antibody, V domains shown, Synthetic h1F6 VH amino acid sequence; Synthetic h1F6 VL amino acid sequence) VH: QVQLVQSGAEVKKPGASVKVSCKASGYTFTNYGMNWVRQAPGQGLKWMGWINTYTGEPTYADAFKGRVTMTRDTSISTAYMELSRLRSDDTAVYYCARDYGDYGMDYWGQGTTVTVSS VL: DIVMTQSPDSLAVSLGERATINCRASKSVSTSGYSFMHWYQQKPGQPPKLLIYLASNLESGVPDRFSGSGSGTDFTLTISSLQAEDVAVYYCQHSREVPWTFGQGTKVEIK | – | –
